Assay results taken from patent US20220332804A1 (CSL INNOVATION, published 2022).

Legend:
Assay in all cases: SPR, antibody captured, C2 as analyte;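 further: biacore at 37 °C, anti-C2 mAbs held by immobilised goat anti-human IgG, C2 alanine or serine mutants injected, double-referenced sensorgrams fitted to a 1:1 kinetic or steady-state model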
[1] = molecular target: T1, human C2 A436S (human, UniProt P06681 21-752)
T1 sequence: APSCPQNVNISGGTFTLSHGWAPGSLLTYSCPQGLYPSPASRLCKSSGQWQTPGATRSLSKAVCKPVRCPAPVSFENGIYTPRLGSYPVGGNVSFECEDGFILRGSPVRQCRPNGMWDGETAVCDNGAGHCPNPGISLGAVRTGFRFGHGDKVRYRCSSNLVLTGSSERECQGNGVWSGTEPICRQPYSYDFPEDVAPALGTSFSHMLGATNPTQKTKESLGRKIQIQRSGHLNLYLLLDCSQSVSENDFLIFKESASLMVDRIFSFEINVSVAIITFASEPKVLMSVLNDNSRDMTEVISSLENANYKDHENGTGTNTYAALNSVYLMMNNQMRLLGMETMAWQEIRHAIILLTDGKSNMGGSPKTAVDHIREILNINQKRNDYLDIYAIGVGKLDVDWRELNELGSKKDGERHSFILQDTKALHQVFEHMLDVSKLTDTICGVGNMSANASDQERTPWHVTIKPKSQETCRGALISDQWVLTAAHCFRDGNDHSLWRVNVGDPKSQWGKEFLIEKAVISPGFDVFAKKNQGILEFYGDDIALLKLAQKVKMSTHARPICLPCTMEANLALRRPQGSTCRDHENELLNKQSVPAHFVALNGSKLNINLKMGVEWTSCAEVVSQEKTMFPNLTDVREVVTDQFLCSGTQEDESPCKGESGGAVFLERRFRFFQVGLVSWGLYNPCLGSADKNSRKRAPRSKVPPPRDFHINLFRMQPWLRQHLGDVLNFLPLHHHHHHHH

[2] = molecular target: T2, human C2 N424A (human, UniProt P06681 21-752)
T2 sequence: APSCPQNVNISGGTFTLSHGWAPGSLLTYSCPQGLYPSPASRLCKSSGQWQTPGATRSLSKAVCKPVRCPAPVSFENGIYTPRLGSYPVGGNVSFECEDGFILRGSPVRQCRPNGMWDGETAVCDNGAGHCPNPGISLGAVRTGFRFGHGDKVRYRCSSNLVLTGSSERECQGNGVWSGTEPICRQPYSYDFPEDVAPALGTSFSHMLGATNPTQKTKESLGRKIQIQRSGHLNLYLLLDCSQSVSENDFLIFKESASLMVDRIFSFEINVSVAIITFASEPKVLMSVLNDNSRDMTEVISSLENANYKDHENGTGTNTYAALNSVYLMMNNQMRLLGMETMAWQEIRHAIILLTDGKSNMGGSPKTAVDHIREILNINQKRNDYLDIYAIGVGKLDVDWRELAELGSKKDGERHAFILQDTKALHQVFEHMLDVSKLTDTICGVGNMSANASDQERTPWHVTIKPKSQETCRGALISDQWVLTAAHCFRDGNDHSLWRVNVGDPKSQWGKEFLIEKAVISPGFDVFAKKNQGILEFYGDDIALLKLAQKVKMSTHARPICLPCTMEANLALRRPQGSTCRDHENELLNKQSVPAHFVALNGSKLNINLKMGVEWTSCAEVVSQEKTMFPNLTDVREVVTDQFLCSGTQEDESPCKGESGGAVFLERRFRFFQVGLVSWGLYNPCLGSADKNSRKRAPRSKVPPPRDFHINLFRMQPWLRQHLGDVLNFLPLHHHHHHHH

[3] = molecular target: T3, human C2 E686A (human, UniProt P06681 21-752)
T3 sequence: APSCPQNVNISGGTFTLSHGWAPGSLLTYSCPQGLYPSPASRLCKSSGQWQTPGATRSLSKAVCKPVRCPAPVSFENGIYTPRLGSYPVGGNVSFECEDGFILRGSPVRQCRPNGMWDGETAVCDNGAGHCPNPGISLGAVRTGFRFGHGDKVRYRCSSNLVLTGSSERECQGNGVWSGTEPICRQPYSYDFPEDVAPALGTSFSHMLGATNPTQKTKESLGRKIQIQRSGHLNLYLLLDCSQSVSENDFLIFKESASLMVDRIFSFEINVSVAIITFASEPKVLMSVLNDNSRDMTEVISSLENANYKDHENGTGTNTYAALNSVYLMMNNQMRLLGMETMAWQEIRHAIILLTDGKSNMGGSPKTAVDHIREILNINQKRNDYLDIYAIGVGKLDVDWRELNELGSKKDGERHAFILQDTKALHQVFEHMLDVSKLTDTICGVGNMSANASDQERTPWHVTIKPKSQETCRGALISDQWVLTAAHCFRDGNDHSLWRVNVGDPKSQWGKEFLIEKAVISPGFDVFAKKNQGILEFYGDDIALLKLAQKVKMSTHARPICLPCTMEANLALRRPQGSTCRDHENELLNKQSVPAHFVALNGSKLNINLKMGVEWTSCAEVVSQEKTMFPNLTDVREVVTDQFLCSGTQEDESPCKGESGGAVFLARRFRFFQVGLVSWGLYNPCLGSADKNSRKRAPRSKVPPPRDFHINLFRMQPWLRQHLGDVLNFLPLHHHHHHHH

[4] = molecular target: T4, human C2 A444S (human, UniProt P06681 21-752)
T4 sequence: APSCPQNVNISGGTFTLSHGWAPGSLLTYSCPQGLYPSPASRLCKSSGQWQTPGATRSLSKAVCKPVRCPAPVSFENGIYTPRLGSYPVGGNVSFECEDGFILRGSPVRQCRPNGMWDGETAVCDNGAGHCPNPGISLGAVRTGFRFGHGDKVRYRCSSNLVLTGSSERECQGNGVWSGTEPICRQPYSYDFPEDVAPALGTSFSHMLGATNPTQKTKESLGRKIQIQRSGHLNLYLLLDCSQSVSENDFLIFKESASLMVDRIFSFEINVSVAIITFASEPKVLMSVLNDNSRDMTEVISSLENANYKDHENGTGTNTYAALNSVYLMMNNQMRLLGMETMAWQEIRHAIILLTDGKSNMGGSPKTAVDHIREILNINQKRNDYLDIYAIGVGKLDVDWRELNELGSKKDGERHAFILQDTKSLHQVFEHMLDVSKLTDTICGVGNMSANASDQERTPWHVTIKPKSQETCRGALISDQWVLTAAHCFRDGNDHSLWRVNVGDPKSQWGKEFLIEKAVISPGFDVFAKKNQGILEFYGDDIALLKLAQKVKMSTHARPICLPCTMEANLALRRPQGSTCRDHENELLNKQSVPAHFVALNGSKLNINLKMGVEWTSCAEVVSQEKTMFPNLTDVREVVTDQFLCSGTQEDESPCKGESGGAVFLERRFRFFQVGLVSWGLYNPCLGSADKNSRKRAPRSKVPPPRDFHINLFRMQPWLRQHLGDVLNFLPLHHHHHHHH

B1: RF16-242 (antibody, human IgG4 S228P, lambda, V domains shown)
VH: EVQLLQSGAEVKKPGESLKISCKGSGYSFTSYWIGWVRQMPGKGLEWMGIIYPGDSDTRYSPSFQGQVTISADKSISTAYLQWSSLKASDTAMYYCARRGHYGDYFDYWGQGTLVTVSS
VL: SYELTQPPSVSVSPGQTARITCSGDALPKKYAYWYHQKSGQAPVLVIYEDRRRPSEIPERFSGSSSGTMATLTITGAQVEDEGVYFCYSRDRAGNQRVFGGGTQLTVLG
notes: pH-dependent anti-C2 antibody from a phage display library
With B1 as the binder, how does the Kd [1] read?
The Kd was 4.9 nM.

And the Kd [2]?
Its Kd is 5.7 nM.

And the Kd [3]?
Its Kd is 32.6 nM.

What about the Kd [4] of the same binder?
The Kd was 22.4 nM.
